According to patent US20250034266A1 (ZAI LAB SHANGHAI, published 2025):

T1: human CCR1 (human, UniProt P32246 1-355)
T1 construct: whole, on cells
T1 sequence (looked up): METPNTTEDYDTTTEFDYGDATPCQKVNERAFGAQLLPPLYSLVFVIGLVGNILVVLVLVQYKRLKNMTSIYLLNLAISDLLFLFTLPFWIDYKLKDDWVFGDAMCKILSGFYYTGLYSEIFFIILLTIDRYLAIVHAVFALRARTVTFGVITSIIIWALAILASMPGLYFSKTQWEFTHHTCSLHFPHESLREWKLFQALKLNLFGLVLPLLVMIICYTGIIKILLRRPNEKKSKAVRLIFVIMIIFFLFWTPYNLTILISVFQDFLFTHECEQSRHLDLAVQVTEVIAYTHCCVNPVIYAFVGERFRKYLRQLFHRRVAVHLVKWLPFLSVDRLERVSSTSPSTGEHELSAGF

T2: human CCR4 (human, UniProt P51679 1-360)
T2 construct: whole, on cells
T2 sequence (looked up): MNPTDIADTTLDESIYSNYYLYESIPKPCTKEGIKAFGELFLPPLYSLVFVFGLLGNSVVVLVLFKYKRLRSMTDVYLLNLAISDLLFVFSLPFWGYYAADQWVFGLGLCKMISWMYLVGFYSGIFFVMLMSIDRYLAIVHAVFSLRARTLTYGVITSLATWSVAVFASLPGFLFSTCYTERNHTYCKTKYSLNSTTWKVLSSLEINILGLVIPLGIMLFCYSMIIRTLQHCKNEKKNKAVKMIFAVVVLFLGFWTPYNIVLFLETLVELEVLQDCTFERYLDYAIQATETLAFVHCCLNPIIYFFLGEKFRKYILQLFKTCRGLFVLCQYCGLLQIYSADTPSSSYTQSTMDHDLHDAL

B1: Hu149-9 (antibody, human IgG1, V domains shown)
VH: EVQLVESGGGLVQPGGSLKLSCAASGFTFNTYAMNWVRQASGKGLEWVGRIRSKSNFYATAYAASVKGRFTISRDDSKNTAYLQMNSLKTEDTAVYYCTRGRDYGSSYAMDYWGQGTLVTVSS
VL: DIVMTQSPLSLPVTPGEPASISCRSSKSLLHSNANTYLYWFLQKPGQSPQLLIYRMSNLASGVPDRFSGSGSGTDFTLKISRVEAEDVGVYYCMQHLEYPLTFGGGTKVELK
notes: humanized, human IgG1; also called Hu149-9 HuIgG1
B2: Hu149-11 (antibody, human IgG1)
heavy: not shown
VL: B1 VL
notes: also called Hu149-11G1
B3: Hu149-12 (antibody, human IgG1)
heavy: not shown
VL: B1 VL
notes: human IgG1; suffix G1 read as wild type as for Hu149-11G1; also called Hu149-12G1
B4: Hu348-4 (antibody, human IgG1, V domains shown)
VH: EVQLVESGGGLVQPGGSLKLSCATSGFSFSNYRMHWLRQASGKGLEWVGVITVKSDNYGANYAASVKGRFTISRDDSKSSVYLQMNSLKTEDTAVYYCSSLGRVAYWGQGTLVTVSS
VL: DIQMTQSPSSVSASVGDRVTITCKASQNVDTNVVWYQQKPGQSPKALIYSASSRYSGVPSRFSGSGSGTDFTLTISSLQPEDFATYYCQQHNSFPLTFGQGTKLEIK
notes: humanized, human IgG1; also called Hu348-4 HuIgG1
B5: CM149 (antibody, V domains shown)
VH: EVQLVESGGGLVQPKGSLKLSCAASGFTFNTYAMNWVRQAPGKGLEWVARIRSKSNFYATYYADSVKDRFTISRDDSQDMLYLQMNILKTEDTAIYYCVRGRDYGSSYAMDYWGQGTSVTVSS
VL: DIVMTQAAPSVPVTPGESVSISCRSSKSLLHSNANTYLYWFLQRPGQSPQLLIYRMSNLASGVPDRFSGSGSGTAFTLRISRVEAEDVGVYYCMQHLEYPLTFGAGTKLELK
notes: CM149 is not defined in words; also called CM149 HuIgG1; parental antibody CM149

Columns and labels:
human CCR8 [1] = molecular target: T3, human CCR8 (human, UniProt P51685 1-355); assay: cell-based or functional assay
human CCR8 [2] = molecular target: T3, human CCR8; assay: FACS on HEK293-human CCR8 cells
Method: (§1) A total of 5×10⁴ cells for each well were seeded in 96-well plates and washed with FACS buffer (DPBD containing 1.5% FBS) for once. Antibodies were prepared with 3-fold serial dilution ranging from 100 nM to 0.0017 nM in FACS buffer. Cells were incubated with 50 μL of diluted antibodies at 4° C. for 1 hour. […] After primary antibody incubation, cells were washed for 3 times by FACS buffer. Then, cells were stained by Alexa Flu647 labeled anti-human IgG secondary antibody (Jackson ImmunoResearch, #109606170) or Alexa Flu647 labeled anti-mouse IgG secondary antibody (Jackson ImmunoResearch, #115605072) at 1:600 dilution in FACS buffer for 0.5 hour at 4° C. After washed for 3 times, Flow cytometry was performed to measure the binding.

human CCR8 [3] = molecular target: T3, human CCR8; assay: FACS on CHO-K1-human CCR8 cells
cynomolgus CCR8 [4] = molecular target: T4, cynomolgus CCR8 (cynomolgus, UniProt G7NYJ2 1-355); assay: FACS on HEK293-cynomolgus CCR8 cells
T4 construct: whole, on cells
Method: as §1

cynomolgus CCR8 [5] = molecular target: T4, cynomolgus CCR8; assay: FACS on HEK293-cynomolgus CCR8 cells; remark: listed apart in the source
human CCR8 [6] = molecular target: T3, human CCR8; assay: FACS on HuT78 cells (endogenous human CCR8)
In short: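 HuT78 cells with endogenous human CCR8 were incubated with diluted antibodies for 1 h at 4 °C, washed, then stained 0.5 h at 4 °C with Alexa Fluor 647 anti-human IgG (1:600). Binding measured by flow cytometry.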

human CCR8 [7] = molecular target: T3, human CCR8; assay: FACS, competition with CCL1 on CHO-K1-human CCR8 cells
human CCR8 [8] = molecular target: T3, human CCR8; assay: FACS, competition with AF647-human CCL1 on CHO-K1-human CCR8 cells
human CCR8 [9] = molecular target: T3, human CCR8; assay: cell-based or functional assay; remark: listed apart in the source
human CCR8 [10] = molecular target: T3, human CCR8; assay: cell-based or functional assay; remark: listed apart in the source
human CCR8 [11] = molecular target: T3, human CCR8; assay: FACS on CHO-K1-human CCR8 cells; remark: listed apart in the source
cynomolgus CCR8 [12] = molecular target: T4, cynomolgus CCR8; assay: FACS on HEK293-cynomolgus CCR8 cells; remark: listed apart in the source
human CCR8 [13] = molecular target: T3, human CCR8; assay: FACS on HuT78 cells (endogenous human CCR8); remark: listed apart in the source
human CCR8 [14] = molecular target: T3, human CCR8; assay: FACS, competition with CCL1 on CHO-K1-human CCR8 cells; remark: listed apart in the source
human CCR8 [15] = molecular target: T3, human CCR8; assay: FACS on HEK293-human CCR8 cells; remark: listed apart in the source
human CCR1 = molecular target: T1, human CCR1; assay: FACS on ExpiCHO-S-human CCR1 cells
Method: (§2) ExpiCHO-S cells were transiently transfected with human CCR1 or human CCR4. A total of 5×10⁴ cells for each well were seeded in 96-well plates and washed with FACS buffer (DPBS containing 1.5% FBS) for once. […] Cells were incubated with 50 μL of diluted antibodies at 4° C. for 1 hour. […] After primary antibody incubation, cells were washed for 3 times by FACS buffer. Then, cells were stained by Alexa Flu647 labeled anti-human IgG secondary antibody (Jackson ImmunoResearch, #109606170) or Alexa Flu647 labeled anti-mouse IgG secondary antibody (Jackson ImmunoResearch, #115605072) at 1:600 dilution in FACS buffer for 0.5 hour at 4° C. Flow cytometry was performed to measure the binding.

human CCR4 = molecular target: T2, human CCR4; assay: FACS on ExpiCHO-S-human CCR4 cells
Method: as §2

cynomolgus CCR8 [16] = molecular target: T4, cynomolgus CCR8; assay: FACS on ExpiCHO-S-cynomolgus CCR8 cells
human CCR8 [17] = molecular target: T3, human CCR8; assay: FACS, competition with AF647-human CCL1 on CHO-K1-human CCR8 cells; remark: listed apart in the source
human CCR8 [18] = molecular target: T3, human CCR8; assay: FACS on HEK293-human CCR8 cells; remark: listed apart in the source
Method: as §1

cynomolgus CCR8 [19] = molecular target: T4, cynomolgus CCR8; assay: FACS on HEK293-cynomolgus CCR8 cells; remark: listed apart in the source
Method: as §1

human CCR8 [20] = molecular target: T3, human CCR8; assay: FACS, competition with AF647-human CCL1 on CHO-K1-human CCR8 cells; remark: listed apart in the source

T3 sequence (P51685 whole entry): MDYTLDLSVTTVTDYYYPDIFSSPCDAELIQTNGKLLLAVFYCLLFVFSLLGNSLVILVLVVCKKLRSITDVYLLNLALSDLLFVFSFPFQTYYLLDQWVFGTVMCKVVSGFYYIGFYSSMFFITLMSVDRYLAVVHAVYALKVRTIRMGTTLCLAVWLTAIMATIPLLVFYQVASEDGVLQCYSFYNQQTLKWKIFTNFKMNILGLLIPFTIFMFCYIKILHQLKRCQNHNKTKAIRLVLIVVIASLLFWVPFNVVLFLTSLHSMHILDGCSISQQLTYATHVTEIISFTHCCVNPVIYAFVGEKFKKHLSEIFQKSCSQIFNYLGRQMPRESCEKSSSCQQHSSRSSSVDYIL
T4 sequence (G7NYJ2 entry or part of it): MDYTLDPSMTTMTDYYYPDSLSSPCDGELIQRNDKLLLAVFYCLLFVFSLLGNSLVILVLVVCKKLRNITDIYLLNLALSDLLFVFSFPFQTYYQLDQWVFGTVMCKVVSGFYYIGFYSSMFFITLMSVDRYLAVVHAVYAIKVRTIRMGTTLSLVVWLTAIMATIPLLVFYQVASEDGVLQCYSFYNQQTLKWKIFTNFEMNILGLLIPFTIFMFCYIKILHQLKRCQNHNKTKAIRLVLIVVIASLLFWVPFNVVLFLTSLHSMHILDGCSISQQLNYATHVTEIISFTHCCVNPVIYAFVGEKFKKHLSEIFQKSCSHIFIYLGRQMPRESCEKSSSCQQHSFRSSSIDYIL

Binder | EC50, ADCC with human PBMC (human CCR8 [1]) [nM] | Max specific lysis (%), ADCC with human PBMC (human CCR8 [1]) [%] | EC50 (human CCR8 [2]) [nM] | EC50 (human CCR8 [3]) [nM] | Max MFI (human CCR8 [3]) [MFI] | EC50 (cynomolgus CCR8 [4]) [nM] | EC50 (cynomolgus CCR8 [5]) [nM] | Max MFI (cynomolgus CCR8 [5]) [MFI] | Max MFI (human CCR8 [6]) [MFI] | IC50 (human CCR8 [7]) [nM] | Max Inhibition (%) (human CCR8 [7]) | IC50 (human CCR8 [8]) [nM] | IC50, inhibition of CCL1 induced β-Arrestin recruitment (human CCR8 [9]) [nM] | Max Inhibition (%), CCL1 induced β-Arrestin recruitment (human CCR8 [9]) [%] | IC50, blocking of cell migration induced by CCL1 (human CCR8 [10]) [nM] | EC50 (human CCR8 [11]) [nM] | Max MFI (human CCR8 [11]) [MFI] | EC50 (cynomolgus CCR8 [12]) [nM] | Max MFI (cynomolgus CCR8 [12]) [MFI] | EC50 (human CCR8 [6]) [nM] | also measured
B1 | 0.06 | 7.56 | 0.072 | 0.0487 | 625000 | 0.12 | 0.0824 | 3.53e+06 | 32300 | 0.087 | 99.2 | 0.119 | – | – | – | – | – | – | – | – | –
B2 | – | – | – | 0.0797 | 648000 | – | 0.137 | 4.6e+06 | 30200 | 0.0988 | 100 | – | 0.8 | 85.2 | 0.849 | 0.158 | 210000 | 0.262 | 4.48e+06 | 0.278 | EC50 (human CCR8 [13]): 0.735 nM; Max MFI (human CCR8 [13]): 57900 MFI; IC50 (human CCR8 [14]): 0.283 nM; Max Inhibition (%) (human CCR8 [14]): 99.5%
B3 | – | – | – | 0.0675 | 638000 | – | 0.199 | 4.04e+06 | 26900 | 0.0982 | 100 | – | 0.35 | 85.8 | 0.953 | 0.093 | 199000 | 0.17 | 3.61e+06 | 0.17 | EC50 (human CCR8 [13]): 0.25 nM; Max MFI (human CCR8 [13]): 48100 MFI; IC50 (human CCR8 [14]): 0.184 nM; Max Inhibition (%) (human CCR8 [14]): 99.5%
B4 | 0.517 | 13.5 | – | – | – | – | – | – | – | – | – | – | – | – | – | – | – | – | – | – | EC50 (human CCR8 [15]): 0.109 nM; Max MFI (human CCR8 [15]): 5120 MFI; binding result (human CCR1): no binding (tested: 200 nM); binding result (human CCR4): no binding (tested: 200 nM); EC50 (cynomolgus CCR8 [16]): 0.087 nM; Max MFI (cynomolgus CCR8 [16]): 534 MFI; IC50 (human CCR8 [17]): 0.151 nM; Max Inhibition (%) (human CCR8 [17]): 94.6%
B5 | 0.067 | 10.3 | 0.18 | – | – | 0.263 | – | – | – | – | – | 0.708 | – | – | – | – | – | – | – | – | EC50 (human CCR8 [18]): 0.142 nM; Max MFI (human CCR8 [18]): 7100 MFI; EC50 (cynomolgus CCR8 [19]): 0.235 nM; Max MFI (cynomolgus CCR8 [19]): 18100 MFI; IC50 (human CCR8 [20]): 0.681 nM; Max Inhibition (%) (human CCR8 [20]): 97.8%
